Test results taken from publication PMC6595180.

Columns and labels:
[1] = molecular target: BG505 SOSIP.664 gp140 trimer (HIV-1 (BG505)); assay: AUC; sedimentation velocity, 20°C, 40,000 rpm, detection at 280 nm, 0.5 mg/mL in formulation buffer (20 mM Tris, 100 mM NaCl pH 7.5); continuous c(s) distribution; also after 0, 1 and 5 freeze-thaw cycles
[2] = molecular target: BG505 SOSIP.v4.1-GT1.1 gp140 trimer (HIV-1 (BG505)); assay: as above

Substance: BG505 SOSIP.664 gp140 trimer (complex)
- stoichiometry N [1]: 3

Substance: BG505 SOSIP.v4.1-GT1.1 gp140 trimer (complex)
- stoichiometry N [2]: 3
